Paper PMC2770428 (2010)
“And” between values parts separate entries of the source, which are not always exact repeats. Equal entries are not always repeated. One block for each molecule: values may come before it.

Legend:
[1] = target: C4b (surface-bound) (Homo sapiens) (UniProt P0C0L4); details: cited from earlier work
[2] = target: C4b (soluble) (Homo sapiens) (UniProt P0C0L4); details: cited from earlier work
[3] = target: C3bC4b complex (on EMan, average) C3b+C4b (Homo sapiens, UniProt P01024); experiment: 125I-C4BP equilibrium binding
Sequence of C3bC4b complex (on EMan, average) C3b+C4b (P01024 23-1663, one chain of several): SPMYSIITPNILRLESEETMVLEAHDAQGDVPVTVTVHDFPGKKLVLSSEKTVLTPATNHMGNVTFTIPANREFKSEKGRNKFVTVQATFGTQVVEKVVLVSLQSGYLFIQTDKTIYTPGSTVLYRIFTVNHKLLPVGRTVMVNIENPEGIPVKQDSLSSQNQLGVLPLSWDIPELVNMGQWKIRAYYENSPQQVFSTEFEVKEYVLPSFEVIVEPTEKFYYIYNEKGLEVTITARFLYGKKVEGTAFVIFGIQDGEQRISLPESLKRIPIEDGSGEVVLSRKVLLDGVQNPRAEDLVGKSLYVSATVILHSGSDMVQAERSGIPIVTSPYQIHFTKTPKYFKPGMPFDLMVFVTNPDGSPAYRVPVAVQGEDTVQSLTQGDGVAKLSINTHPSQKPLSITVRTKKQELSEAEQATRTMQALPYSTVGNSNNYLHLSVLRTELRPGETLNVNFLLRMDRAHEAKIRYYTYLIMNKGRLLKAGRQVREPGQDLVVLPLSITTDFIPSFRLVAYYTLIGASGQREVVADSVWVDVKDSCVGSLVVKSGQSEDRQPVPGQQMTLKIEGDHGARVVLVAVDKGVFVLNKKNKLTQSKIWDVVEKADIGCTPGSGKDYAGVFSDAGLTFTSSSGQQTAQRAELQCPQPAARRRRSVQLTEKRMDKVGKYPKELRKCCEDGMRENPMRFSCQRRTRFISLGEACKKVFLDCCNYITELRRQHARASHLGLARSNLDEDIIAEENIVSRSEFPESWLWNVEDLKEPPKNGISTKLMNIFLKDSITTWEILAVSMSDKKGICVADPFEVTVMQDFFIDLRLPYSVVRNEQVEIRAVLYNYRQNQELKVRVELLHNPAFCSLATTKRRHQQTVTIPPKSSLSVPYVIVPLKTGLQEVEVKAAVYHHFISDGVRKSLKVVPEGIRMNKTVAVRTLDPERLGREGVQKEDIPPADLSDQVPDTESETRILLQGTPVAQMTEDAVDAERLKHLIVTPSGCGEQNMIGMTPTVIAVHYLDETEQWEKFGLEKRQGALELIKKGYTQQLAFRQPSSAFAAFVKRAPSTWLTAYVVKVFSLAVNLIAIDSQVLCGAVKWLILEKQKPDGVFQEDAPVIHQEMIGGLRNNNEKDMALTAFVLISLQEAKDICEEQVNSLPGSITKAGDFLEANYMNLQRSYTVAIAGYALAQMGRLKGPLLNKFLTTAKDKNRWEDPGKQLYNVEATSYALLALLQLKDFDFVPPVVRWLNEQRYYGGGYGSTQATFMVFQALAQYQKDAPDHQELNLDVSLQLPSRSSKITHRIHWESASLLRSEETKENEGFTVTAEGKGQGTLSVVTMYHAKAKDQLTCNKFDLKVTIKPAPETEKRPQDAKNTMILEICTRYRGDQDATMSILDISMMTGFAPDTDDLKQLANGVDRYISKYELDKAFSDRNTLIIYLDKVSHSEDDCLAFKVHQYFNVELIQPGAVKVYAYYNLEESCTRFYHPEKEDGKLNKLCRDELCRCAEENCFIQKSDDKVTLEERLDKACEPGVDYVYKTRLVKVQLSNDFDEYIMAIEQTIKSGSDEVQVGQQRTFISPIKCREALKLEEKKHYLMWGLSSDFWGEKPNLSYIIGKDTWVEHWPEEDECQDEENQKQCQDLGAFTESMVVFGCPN

[4] = target: C3bC4b complex (on zymosan, 54,000 C4b/Zym) C3b+C4b (Homo sapiens, UniProt P01024); experiment: 125I-C4BP equilibrium binding
Sequence of C3bC4b complex (on zymosan, 54,000 C4b/Zym) C3b+C4b (P01024 23-1663, one chain of several): as above

[5] = target: C3bC4b complex (on zymosan, average) C3b+C4b (Homo sapiens, UniProt P01024); experiment: 125I-C4BP equilibrium binding
Sequence of C3bC4b complex (on zymosan, average) C3b+C4b (P01024 23-1663, one chain of several): as above

[6] = target: T1, C4b (on zymosan, average) C4b (Homo sapiens, UniProt P0C0L5); experiment: 125I-C4BP equilibrium binding
T1 chain 1: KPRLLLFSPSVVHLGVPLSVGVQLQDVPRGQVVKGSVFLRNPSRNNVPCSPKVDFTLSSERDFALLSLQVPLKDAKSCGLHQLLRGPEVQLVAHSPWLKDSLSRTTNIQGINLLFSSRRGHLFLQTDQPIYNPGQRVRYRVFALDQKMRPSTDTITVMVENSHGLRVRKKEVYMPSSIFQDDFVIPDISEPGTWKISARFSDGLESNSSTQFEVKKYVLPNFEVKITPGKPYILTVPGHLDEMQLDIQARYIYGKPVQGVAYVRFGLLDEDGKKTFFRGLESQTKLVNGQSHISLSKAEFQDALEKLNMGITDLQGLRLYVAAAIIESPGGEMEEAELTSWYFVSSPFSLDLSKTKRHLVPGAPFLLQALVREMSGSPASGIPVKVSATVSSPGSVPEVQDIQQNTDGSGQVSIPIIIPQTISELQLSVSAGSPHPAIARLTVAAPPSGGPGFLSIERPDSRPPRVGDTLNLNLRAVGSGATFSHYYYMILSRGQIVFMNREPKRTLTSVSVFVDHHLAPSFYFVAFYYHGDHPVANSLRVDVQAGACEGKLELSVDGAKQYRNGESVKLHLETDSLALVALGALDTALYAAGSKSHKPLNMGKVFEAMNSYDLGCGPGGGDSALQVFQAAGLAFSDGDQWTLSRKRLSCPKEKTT
T1 chain 2: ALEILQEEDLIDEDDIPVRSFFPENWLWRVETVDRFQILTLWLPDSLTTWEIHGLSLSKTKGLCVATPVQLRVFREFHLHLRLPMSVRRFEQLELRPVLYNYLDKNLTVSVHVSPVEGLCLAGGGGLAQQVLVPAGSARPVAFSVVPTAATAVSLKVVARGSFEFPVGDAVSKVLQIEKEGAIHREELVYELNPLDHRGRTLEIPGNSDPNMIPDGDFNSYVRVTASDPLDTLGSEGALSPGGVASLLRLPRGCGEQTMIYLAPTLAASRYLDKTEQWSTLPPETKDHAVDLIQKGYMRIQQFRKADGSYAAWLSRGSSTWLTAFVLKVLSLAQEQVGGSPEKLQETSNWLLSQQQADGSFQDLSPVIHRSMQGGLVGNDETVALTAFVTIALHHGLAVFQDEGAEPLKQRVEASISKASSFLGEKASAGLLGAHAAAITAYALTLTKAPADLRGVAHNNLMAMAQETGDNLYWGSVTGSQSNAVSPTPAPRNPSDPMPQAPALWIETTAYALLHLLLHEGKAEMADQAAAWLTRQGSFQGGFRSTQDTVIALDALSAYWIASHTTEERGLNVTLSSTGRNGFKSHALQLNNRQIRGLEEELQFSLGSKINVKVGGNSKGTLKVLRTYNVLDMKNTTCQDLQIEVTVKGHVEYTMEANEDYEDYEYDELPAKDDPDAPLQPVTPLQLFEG
T1 chain 3: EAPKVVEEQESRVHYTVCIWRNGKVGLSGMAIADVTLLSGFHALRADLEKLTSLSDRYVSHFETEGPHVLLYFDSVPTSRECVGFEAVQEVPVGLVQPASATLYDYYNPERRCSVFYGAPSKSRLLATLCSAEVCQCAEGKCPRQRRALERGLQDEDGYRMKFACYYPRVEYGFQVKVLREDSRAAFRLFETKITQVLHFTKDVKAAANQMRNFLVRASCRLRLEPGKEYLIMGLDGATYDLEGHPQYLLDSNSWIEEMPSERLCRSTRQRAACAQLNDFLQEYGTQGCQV

Molecule: C4BP (from UniProt P04003)
Kd [1]: 5 nM and 2.2 nM
Kd [2]: 80 nM

Kd [3]: 2.1 nM
Kd [4]: 0.62 nM
Kd [5]: 0.9 nM
Kd [6]: 0.95 nM
B1: C4b-binding protein (C4BP) (protein)
chain 1: NCGPPPTLSFAAPMDITLTETRFKTGTTLKYTCLPGYVRSHSTQTLTCNSDGEWVYNTFCIYKRCRHPGELRNGQVEIKTDLSFGSQIEFSCSEGFFLIGSTTSRCEVQDRGVGWSHPLPQCEIVKCKPPPDIRNGRHSGEENFYAYGFSVTYSCDPRFSLLGHASISCTVENETIGVWRPSPPTCEKITCRKPDVSHGEMVSGFGPIYNYKDTIVFKCQKGFVLRGSSVIHCDADSKWNPSPPACEPNSCINLPDIPHASWETYPRPTKEDVYVVGTVLRYRCHPGYKPTTDEPTTVICQKNLRWTPYQGCEALCCPEPKLNNGEITQHRKSRPANHCVYFYGDEISFSCHETSRFSAICQGDGTWSPRTPSCGDICNFPPKIAHGHYKQSSSYSFFKEEIIYECDKGYILVGQAKLSCSYSHWSAPAPQCKALCRKPELVNGRLSVDKDQYVEPENVTIQCDSGYGVVGPQSITCSGNRTWYPEVPKCEWETPEGCEQVLTGKRLMQCLPNPEDVKMALEVYKLSLEIEQLELQRDSARQSTLDKEL
chain 2: SDAEHCPELPPVDNSIFVAKEVEGQILGTYVCIKGYHLVGKKTLFCNASKEWDNTTTECRLGHCPDPVLVNGEFSSSGPVNVSDKITFMCNDHYILKGSNRSQCLEDHTWAPPFPICKSRDCDPPGNPVHGYFEGNNFTLGSTISYYCEDRYYLVGVQEQQCVDGEWSSALPVCKLIQEAPKPECEKALLAFQESKNLCEAMENFMQQLKESGMTMEELKYSLELKKAELKAKLL
